Biological target: Cladosporium fulvum LysM effector Ecp6 (extracellular protein 6), produced in Pichia pastoris (Cladosporium fulvum) (UniProt B3VBK9)
Assay: SEC

Cladosporium fulvum LysM effector Ecp6 (extracellular protein 6), produced in Pichia pastoris (from UniProt B3VBK9) (natural protein)
stoichiometry N: 2
